IntAct's records for PubMed 31515488

B1: Coiled-coil domain-containing protein 70 (Homo sapiens), Q6NSX1 (parent)
chain: MFSFKVSRWMGLACFRSLAASSPSIRQKKLMHKLQEEKAFREEMKIFREKIEDFREEMWTFRGKIHAFRGQILGFWEEERPFWEEEKTFWKEEKSFWEMEKSFREEEKTFWKKYRTFWKEDKAFWKEDNALWERDRNLLQEDKALWEEEKALWVEERALLEGEKALWEDKTSLWEEENALWEEERAFWMENNGHIAGEQMLEDGPHNANRGQRLLAFSRGRA
partner: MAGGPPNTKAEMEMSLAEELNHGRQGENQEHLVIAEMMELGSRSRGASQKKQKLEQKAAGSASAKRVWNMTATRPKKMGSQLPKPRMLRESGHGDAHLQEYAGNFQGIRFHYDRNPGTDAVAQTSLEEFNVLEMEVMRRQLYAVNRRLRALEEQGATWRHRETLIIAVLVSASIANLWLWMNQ
B2: Microtubule-associated tumor suppressor candidate 2 (Homo sapiens), Q5JR59-3 (parent)
chain: MGHCCCKPYNCLQCLDKTNESALVKEKELSIELANIRDEVAFHTAKCEKLQKEKEELERRFEDEVKRLGWQQQAELQELEERLQLQFEAEMARLQEEHGDQLLSIRCQHQEQVEDLTASHDAALLEMENNHTVAITILQDDHDHKVQELMSTHELEKKELEENFEKLRLSLQDQVDTLTFQSQSLRDRARRFEEALRKNTEEQLEIALAPYQHLEEDMKSLKQVLEMKNQQIHEQEKKILELEKLAEKNIILEEKIQVLQQQNEDLKARIDQNTVVTRQLSEENANLQEYVEKETQEKKRLSRTNEELLWKLQTGDPTSPIKLSPTSPVYRGSSSGPSSPARVSTTPR
partner: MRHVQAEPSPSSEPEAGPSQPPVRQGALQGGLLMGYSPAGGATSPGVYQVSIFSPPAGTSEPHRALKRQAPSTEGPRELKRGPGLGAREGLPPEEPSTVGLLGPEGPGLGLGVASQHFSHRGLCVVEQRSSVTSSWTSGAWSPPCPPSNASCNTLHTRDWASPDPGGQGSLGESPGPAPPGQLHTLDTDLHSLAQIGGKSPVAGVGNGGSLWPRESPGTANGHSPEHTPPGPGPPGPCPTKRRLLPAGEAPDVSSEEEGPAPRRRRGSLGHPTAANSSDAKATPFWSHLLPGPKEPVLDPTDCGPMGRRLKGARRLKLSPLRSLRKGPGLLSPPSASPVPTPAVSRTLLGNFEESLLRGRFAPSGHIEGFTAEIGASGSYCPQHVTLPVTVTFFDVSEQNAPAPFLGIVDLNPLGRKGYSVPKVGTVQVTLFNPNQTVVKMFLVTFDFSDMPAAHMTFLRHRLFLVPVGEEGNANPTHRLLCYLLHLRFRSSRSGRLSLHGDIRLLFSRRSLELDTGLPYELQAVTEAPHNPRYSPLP
B3: Armadillo repeat-containing protein 1 (Homo sapiens), Q9NVT9 (parent)
chain: MNSSTSTMSEEPDALSVVNQLRDLAADPLNRRAIVQDQGCLPGLILFMDHPNPPVVHSALLALRYLAECRANREKMKGELGMMLSLQNVIQKTTTPGETKLLASEIYDILQSSNMADGDSFNEMNSRRRKAQFFLGTTNKRAKTVVLHIDGLDDTSRRNLCEEALLKIKGVISFTFQMAVQRCVVRIRSDLKAEALASAIASTKVMKAQQVVKSESGEEMLVPFQDTPVEVEQNTELPDYLPEDESPTKEQDKAVSRVGSHPEGGASWLSTAANFLSRSFYW
B4: F-box only protein 3 (Homo sapiens), Q9UK99 (parent)
chain: MAAMETETAPLTLESLPTDPLLLILSFLDYRDLINCCYVSRRLSQLSSHDPLWRRHCKKYWLISEEEKTQKNQCWKSLFIDTYSDVGRYIDHYAAIKKAWDDLKKYLEPRCPRMVLSLKEGAREEDLDAVEAQIGCKLPDDYRCSYRIHNGQKLVVPGLLGSMALSNHYRSEDLLDVDTAAGGFQQRQGLKYCLPLTFCIHTGLSQYIAVEAAEGRNKNEVFYQCPDQMARNPAAIDMFIIGATFTDWFTSYVKNVVSGGFPIIRDQIFRYVHDPECVATTGDITVSVSTSFLPELSSVHPPHYFFTYRIRIEMSKDALPEKACQLDSRYWRITNAKGDVEEVQGPGVVGEFPIISPGRVYEYTSCTTFSTTSGYMEGYYTFHFLYFKDKIFNVAIPRFHMACPTFRVSIARLEMGPDEYEEMEEEEEEEEEEDEDDDSADMDESDEDDEEERRRRVFDVPIRRRRCSRLF
B5: Rhophilin-1 (Homo sapiens), Q8TCX5 (parent)
chain: MILEERPDGAGAGEESPRLQGCDSLTQIQCGQLQSRRAQIHQQIDKELQMRTGAENLYRATSNNRVRETVALELSYVNSNLQLLKEELEELSGGVDPGRHGSEAVTVPMIPLGLKETKELDWSTPLKELISVHFGEDGASYEAEIRELEALRQAMRTPSRNESGLELLTAYYNQLCFLDARFLTPARSLGLFFHWYDSLTGVPAQQRALAFEKGSVLFNIGALHTQIGARQDRSCTEGARRAMEAFQRAAGAFSLLRENFSHAPSPDMSAASLCALEQLMMAQAQECVFEGLSPPASMAPQDCLAQLRLAQEAAQVAAEYRLVHRTMAQPPVHDYVPVSWTALVHVKAEYFRSLAHYHVAMALCDGSPATEGELPTHEQVFLQPPTSSKPRGPVLPQELEERRQLGKAHLKRAILGQEEALRLHALCRVLREVDLLRAVISQTLQRSLAKYAELDREDDFCEAAEAPDIQPKTHQKPEARMPRLSQGKGPDIFHRLGPLSVFSAKNRWRLVGPVHLTRGEGGFGLTLRGDSPVLIAAVIPGSQAAAAGLKEGDYIVSVNGQPCRWWRHAEVVTELKAAGEAGASLQVVSLLPSSRLPSLGDRRPVLLGPRGLLRSQREHGCKTPASTWASPRPLLNWSRKAQQGKTGGCPQPCAPVKPAPPSSLKHPGWP
B6: Phosphoserine phosphatase (Homo sapiens), P78330 (parent)
chain: MVSHSELRKLFYSADAVCFDVDSTVIREEGIDELAKICGVEDAVSEMTRRAMGGAVPFKAALTERLALIQPSREQVQRLIAEQPPHLTPGIRELVSRLQERNVQVFLISGGFRSIVEHVASKLNIPATNVFANRLKFYFNGEYAGFDETQPTAESGGKGKVIKLLKEKFHFKKIIMIGDGATDMEACPPADAFIGFGGNVIRQQVKDNAKWYITDFVELLGELEE
partner: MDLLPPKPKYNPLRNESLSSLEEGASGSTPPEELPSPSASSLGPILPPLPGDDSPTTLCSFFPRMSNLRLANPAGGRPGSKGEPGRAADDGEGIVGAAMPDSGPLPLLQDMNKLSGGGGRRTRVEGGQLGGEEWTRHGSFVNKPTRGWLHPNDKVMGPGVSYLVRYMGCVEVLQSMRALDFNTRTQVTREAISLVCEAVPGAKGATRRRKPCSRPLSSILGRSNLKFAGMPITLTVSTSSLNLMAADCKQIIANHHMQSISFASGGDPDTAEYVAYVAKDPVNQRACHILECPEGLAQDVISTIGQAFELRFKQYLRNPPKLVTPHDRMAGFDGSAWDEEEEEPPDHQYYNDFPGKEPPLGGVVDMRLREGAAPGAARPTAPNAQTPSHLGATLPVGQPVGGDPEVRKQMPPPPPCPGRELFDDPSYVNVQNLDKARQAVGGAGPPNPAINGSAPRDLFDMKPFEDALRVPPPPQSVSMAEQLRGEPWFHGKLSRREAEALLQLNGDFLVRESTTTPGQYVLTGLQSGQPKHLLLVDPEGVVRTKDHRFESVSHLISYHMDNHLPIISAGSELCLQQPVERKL
B7: Chondroitin sulfate N-acetylgalactosaminyltransferase 2 (Homo sapiens), Q8N6G5 (parent)
chain: MPRRGLILHTRTHWLLLGLALLCSLVLFMYLLECAPQTDGNASLPGVVGENYGKEYYQALLQEQEEHYQTRATSLKRQIAQLKQELQEMSEKMRSLQERRNVGANGIGYQSNKEQAPSDLLEFLHSQIDKAEVSIGAKLPSEYGVIPFESFTLMKVFQLEMGLTRHPEEKPVRKDKRDELVEVIEAGLEVINNPDEDDEQEDEEGPLGEKLIFNENDFVEGYYRTERDKGTQYELFFKKADLTEYRHVTLFRPFGPLMKVKSEMIDITRSIINIIVPLAERTEAFVQFMQNFRDVCIHQDKKIHLTVVYFGKEGLSKVKSILESVTSESNFHNYTLVSLNEEFNRGRGLNVGARAWDKGEVLMFFCDVDIYFSAEFLNSCRLNAEPGKKVFYPVVFSLYNPAIVYANQEVPPPVEQQLVHKKDSGFWRDFGFGMTCQYRSDFLTIGGFDMEVKGWGGEDVHLYRKYLHGDLIVIRTPVPGLFHLWHEKRCADELTPEQYRMCIQSKAMNEASHSHLGMLVFREEIETHLHKQAYRTNSEAVG
B8: Alpha-taxilin (Homo sapiens), P40222 (parent)
chain: MKNQDKKNGAAKQSNPKSSPGQPEAGPEGAQERPSQAAPAVEAEGPGSSQAPRKPEGAQARTAQSGALRDVSEELSRQLEDILSTYCVDNNQGGPGEDGAQGEPAEPEDAEKSRTYVARNGEPEPTPVVNGEKEPSKGDPNTEEIRQSDEVGDRDHRRPQEKKKAKGLGKEITLLMQTLNTLSTPEEKLAALCKKYAELLEEHRNSQKQMKLLQKKQSQLVQEKDHLRGEHSKAVLARSKLESLCRELQRHNRSLKEEGVQRAREEEEKRKEVTSHFQVTLNDIQLQMEQHNERNSKLRQENMELAERLKKLIEQYELREEHIDKVFKHKDLQQQLVDAKLQQAQEMLKEAEERHQREKDFLLKEAVESQRMCELMKQQETHLKQQLALYTEKFEEFQNTLSKSSEVFTTFKQEMEKMTKKIKKLEKETTMYRSRWESSNKALLEMAEEKTVRDKELEGLQVKIQRLEKLCRALQTERNDLNKRVQDLSAGGQGSLTDSGPERRPEGPGAQAPSSPRVTEAPCYPGAPSTEASGQTGPQEPTSARA
partner: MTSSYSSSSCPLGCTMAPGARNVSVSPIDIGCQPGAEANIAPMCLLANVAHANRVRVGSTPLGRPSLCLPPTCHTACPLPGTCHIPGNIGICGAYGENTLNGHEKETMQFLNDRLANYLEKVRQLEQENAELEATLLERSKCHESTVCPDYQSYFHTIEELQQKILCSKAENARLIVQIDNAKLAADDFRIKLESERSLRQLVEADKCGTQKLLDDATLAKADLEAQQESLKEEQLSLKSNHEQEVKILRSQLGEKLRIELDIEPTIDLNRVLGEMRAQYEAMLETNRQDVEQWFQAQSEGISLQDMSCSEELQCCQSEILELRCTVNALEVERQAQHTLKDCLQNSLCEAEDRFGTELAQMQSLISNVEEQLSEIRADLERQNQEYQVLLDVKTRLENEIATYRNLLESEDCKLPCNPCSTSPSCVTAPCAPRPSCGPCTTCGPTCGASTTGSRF

Variants of: B1
Conditions: with fate1_human FATE1, Q969F0

Row | effect of a mutation on the interaction | Variant
1 | with no effect | R62Q
2 | with no effect | M200V

Variants of: B2
Conditions: with atosb_human ATOSB

Row | effect of a mutation on the interaction | Variant
3 | with no effect | A89V

Variants of: B3
Conditions: with mfr1l_human MTFR1L

Row | effect of a mutation on the interaction | Variant
4 | with no effect | M83T

Variants of: B4
Conditions: with skp1_human SKP1, P63208
Chain of skp1_human SKP1, P63208 (P63208 whole entry): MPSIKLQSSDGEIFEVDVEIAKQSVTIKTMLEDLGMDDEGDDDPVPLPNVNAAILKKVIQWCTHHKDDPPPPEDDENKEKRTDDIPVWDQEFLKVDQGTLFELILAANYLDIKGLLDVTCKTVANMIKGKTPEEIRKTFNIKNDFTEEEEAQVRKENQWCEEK

Row | effect of a mutation on the interaction | Variant
5 | with no effect | P10S

Variants of: B5
Conditions: with mtus2_human MTUS2, Q5JR59
Chain of mtus2_human MTUS2, Q5JR59 (Q5JR59 whole entry): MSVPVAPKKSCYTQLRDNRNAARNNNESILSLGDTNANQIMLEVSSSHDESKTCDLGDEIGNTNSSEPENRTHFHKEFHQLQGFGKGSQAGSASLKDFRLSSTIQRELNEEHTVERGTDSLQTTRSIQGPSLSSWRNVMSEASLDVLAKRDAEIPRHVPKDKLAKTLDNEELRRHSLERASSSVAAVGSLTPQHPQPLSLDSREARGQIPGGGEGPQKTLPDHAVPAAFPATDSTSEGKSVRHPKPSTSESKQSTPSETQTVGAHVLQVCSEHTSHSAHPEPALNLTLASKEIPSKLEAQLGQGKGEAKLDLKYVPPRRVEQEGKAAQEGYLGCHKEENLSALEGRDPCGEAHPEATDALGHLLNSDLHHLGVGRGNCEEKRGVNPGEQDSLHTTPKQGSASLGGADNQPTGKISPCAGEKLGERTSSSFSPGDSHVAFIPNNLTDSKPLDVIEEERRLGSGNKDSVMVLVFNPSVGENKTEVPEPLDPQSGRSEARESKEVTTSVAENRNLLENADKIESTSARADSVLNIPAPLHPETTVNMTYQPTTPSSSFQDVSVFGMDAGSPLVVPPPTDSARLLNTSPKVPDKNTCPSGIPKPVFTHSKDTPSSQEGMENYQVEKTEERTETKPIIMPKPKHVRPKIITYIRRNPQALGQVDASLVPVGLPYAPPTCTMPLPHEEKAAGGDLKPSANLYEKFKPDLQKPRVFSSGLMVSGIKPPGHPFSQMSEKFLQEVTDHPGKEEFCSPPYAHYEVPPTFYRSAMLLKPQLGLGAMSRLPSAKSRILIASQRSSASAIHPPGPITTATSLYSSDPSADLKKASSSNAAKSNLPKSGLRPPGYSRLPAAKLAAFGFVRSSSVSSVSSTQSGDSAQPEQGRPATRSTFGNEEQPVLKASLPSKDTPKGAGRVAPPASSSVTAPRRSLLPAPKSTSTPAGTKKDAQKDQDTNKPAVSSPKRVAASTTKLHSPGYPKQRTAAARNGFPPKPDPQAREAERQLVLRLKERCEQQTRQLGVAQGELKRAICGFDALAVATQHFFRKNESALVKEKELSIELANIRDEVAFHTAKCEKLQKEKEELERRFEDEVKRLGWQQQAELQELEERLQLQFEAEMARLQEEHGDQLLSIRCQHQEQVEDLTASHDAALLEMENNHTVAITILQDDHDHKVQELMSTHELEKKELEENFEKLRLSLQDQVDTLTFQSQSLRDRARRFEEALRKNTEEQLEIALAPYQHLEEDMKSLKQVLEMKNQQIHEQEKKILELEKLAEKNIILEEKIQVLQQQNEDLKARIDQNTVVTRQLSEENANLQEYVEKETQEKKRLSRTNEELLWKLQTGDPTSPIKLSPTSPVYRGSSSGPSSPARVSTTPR

Row | effect of a mutation on the interaction | Variant
6 | with no effect | A536T

Variants of: B6
Conditions: with shc1_human SHC1, P29353

Row | effect of a mutation on the interaction | Variant
7 | with no effect | T149M
8 | with no effect | T152I

Variants of: B7
Conditions: with BCL2L13, Q9BXK5
Chain of BCL2L13, Q9BXK5 (Q9BXK5 whole entry): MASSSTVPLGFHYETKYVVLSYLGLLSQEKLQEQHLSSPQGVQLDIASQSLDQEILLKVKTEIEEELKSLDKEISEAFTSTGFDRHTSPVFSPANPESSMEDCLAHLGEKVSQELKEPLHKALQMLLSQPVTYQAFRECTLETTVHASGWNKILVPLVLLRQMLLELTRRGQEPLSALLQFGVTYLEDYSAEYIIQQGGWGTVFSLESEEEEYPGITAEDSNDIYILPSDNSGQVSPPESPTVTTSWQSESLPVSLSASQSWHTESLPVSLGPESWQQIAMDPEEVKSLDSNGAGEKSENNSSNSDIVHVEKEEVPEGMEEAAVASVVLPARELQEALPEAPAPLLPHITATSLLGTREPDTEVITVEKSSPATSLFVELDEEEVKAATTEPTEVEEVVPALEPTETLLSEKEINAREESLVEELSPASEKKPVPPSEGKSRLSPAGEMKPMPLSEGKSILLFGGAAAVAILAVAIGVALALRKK

Row | effect of a mutation on the interaction | Variant
9 | with no effect | P479S

Variants of: B8
Conditions: with krt38_human KRT38, O76015

Row | effect of a mutation on the interaction | Variant
10 | disrupting interaction strength | R154G
11 | with no effect | S514R
